Data published in patent US20250101113A1.

Target: human CD94 on cells (human) (UniProt Q13241)
Assay: cell-based or functional assay

Sequence of UniProt Q13241 (Q13241 whole entry): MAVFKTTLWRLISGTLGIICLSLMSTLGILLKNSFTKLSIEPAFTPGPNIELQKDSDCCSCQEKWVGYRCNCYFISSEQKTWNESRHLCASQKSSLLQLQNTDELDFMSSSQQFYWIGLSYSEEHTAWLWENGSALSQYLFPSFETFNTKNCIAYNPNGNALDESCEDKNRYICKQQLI

**Q.** “commercial murine anti-CD94 antibody (clone DX22 from Biolegend Catalog #305502)” was tested. Which CD107a expression on IL-2-activated NK cells co-cultured with HLA-E-expressing SP-53 cells (% of cells) did it give?
**A.** Its CD107a expression on IL-2-activated NK cells co-cultured with HLA-E-expressing SP-53 cells (% of cells) is 16%.
